From article PMC12175908

Molecular target: Paxillin N-domain (residues 1 to 311) (human) (UniProt P49023)
Assay: NMR titration; 100 μM 15N-PXN N-domain, unlabeled FAT added (10 to 300 μM); 2D 1H-15N HSQC, decay of amide peak intensity per LD motif, fraction bound against total FAT; effective (relative) constants for single LD motifs; 100 mM potassium phosphate, 1 mM TCEP, 0.1 mM EDTA, pH 7.0, 10°C

UniProt P49023, sequence (P49023 other isoform, or with tags, fused parts or gaps): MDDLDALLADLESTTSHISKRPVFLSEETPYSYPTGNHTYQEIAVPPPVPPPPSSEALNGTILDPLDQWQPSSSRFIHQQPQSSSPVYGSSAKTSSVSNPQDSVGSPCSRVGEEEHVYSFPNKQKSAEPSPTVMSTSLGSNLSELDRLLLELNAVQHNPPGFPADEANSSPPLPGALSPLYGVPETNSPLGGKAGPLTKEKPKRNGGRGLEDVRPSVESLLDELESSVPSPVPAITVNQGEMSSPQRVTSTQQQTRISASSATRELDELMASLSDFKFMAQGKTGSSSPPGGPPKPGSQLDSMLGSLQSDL

Substance: focal adhesion targeting (FAT) domain of focal adhesion kinase (domain or fragment)
- effective Kd of the LD1 motif: 17 µM
- effective Kd of the LD2 motif: 7000 µM
- effective Kd of the LD4 motif: 13 µM
